Experimental data reported in patent publication US6936431.

Molecular target: rat brain farnesyl:protein transferase (rat) (UniProt Q04631)
Assay: cell-based or functional assay

For “CVIM with glutamic acid at the X position (CVIE) (peptide)”, which 50% inhibition is on record?
The 50% inhibition was over 40 µM.

With “CVIM with glycine at the X position (CVIG) (peptide)” as the substance, how does the 50% inhibition read?
Its 50% inhibition is over 40 µM.

Which fold decline in affinity does the source give for “CVIM with lysine at the A2 position (CVKM) (peptide)” here?
The fold decline in affinity was over 50 fold.

And the fold decrease in affinity against CVIM, estimated by the concentration required for 50% inhibition?
The fold decrease in affinity against CVIM, estimated by the concentration required for 50% inhibition was over 30 fold.

For “CVIM with glutamic acid at the A2 position (CVEM) (peptide)”, which fold decline in affinity is on record?
The fold decline in affinity was over 50 fold.

Which 50% inhibition does the source give for “CVIM with glycine at the A2 position (CVGM) (peptide)” here?
Its 50% inhibition is 8 µM.

Which Concentration For 50% Inhibition does the source give for “CAIL (COOH-terminal tetrapeptide of γ-Subunit of G protein)” here?
Its Concentration For 50% Inhibition is 100 µM.

How did the 50% inhibition turn out when “CVIM with lysine at the X position (CVIK) (peptide)” was run?
Its 50% inhibition is over 40 µM.

What about the fold decrease in affinity against CVIM, estimated by the concentration required for 50% inhibition of the same substance?
Its fold decrease in affinity against CVIM, estimated by the concentration required for 50% inhibition is over 30 fold.
